Results published in the Human Domainome abundance scans (Beltran et al. 2025).
± gives the uncertainty stated by the source.

B1: TOX high mobility group box family member 3, residues 256 to 323; numbered along this chain, O15405 (parent)
chain: QKPVSAYALFFRDTQAAIKGQNPNATFGEVSKIVASMWDSLGEEQKQVYKRKTEAAKKEYLKALAAYR

Variants of: B1
Assay: abundance fitness (aPCA) (normalised: wild type 0, dead -1); higher = more abundant; growth selection in yeast, the domain comes from the species named
Details: Homo sapiens

In order of falling abundance fitness:
1. QKPVSAYALFFRDTYAAIKGQNPNATFGEVSKIVASMWDSLGEEQKQVYKRKTEAAKKEYLKALAAYR [Q15Y]  0.367 ± 0.34
2. QKPVSAYALFFRDTQAKIKGQNPNATFGEVSKIVASMWDSLGEEQKQVYKRKTEAAKKEYLKALAAYR [A17K]  0.196 ± 0.085
3. QKPVSAYALFFRDTQEAIKGQNPNATFGEVSKIVASMWDSLGEEQKQVYKRKTEAAKKEYLKALAAYR [A16E]  0.158 ± 0.076
4. QKPVSAYALFFRDTQARIKGQNPNATFGEVSKIVASMWDSLGEEQKQVYKRKTEAAKKEYLKALAAYR [A17R]  0.083 ± 0.055
5. QKPVSAYALFFRDTQNAIKGQNPNATFGEVSKIVASMWDSLGEEQKQVYKRKTEAAKKEYLKALAAYR [A16N]  0.078 ± 0.13
6. QKPVSAYALFFRDTQDAIKGQNPNATFGEVSKIVASMWDSLGEEQKQVYKRKTEAAKKEYLKALAAYR [A16D]  0.068 ± 0.12
7. QKPVSAYALFFRDTQPAIKGQNPNATFGEVSKIVASMWDSLGEEQKQVYKRKTEAAKKEYLKALAAYR [A16P]  0.067 ± 0.063
8. QKPVSAYALFFRDTQATIKGQNPNATFGEVSKIVASMWDSLGEEQKQVYKRKTEAAKKEYLKALAAYR [A17T]  0.035 ± 0.062
9. QKPVSAYALFFRDTQRAIKGQNPNATFGEVSKIVASMWDSLGEEQKQVYKRKTEAAKKEYLKALAAYR [A16R]  0.021 ± 0.053
10. QKPVSAYALFFRDTQAVIKGQNPNATFGEVSKIVASMWDSLGEEQKQVYKRKTEAAKKEYLKALAAYR [A17V]  0.017 ± 0.064
11. QKPVSAYALFFRDTQKAIKGQNPNATFGEVSKIVASMWDSLGEEQKQVYKRKTEAAKKEYLKALAAYR [A16K]  0.009 ± 0.067
12. QKPVSAYALFFRDTQAQIKGQNPNATFGEVSKIVASMWDSLGEEQKQVYKRKTEAAKKEYLKALAAYR [A17Q]  -0.004 ± 0.072
13. QKPVSAYALFFRDTQAIIKGQNPNATFGEVSKIVASMWDSLGEEQKQVYKRKTEAAKKEYLKALAAYR [A17I]  -0.012 ± 0.076
14. QKPVSAYALFFRDTQAHIKGQNPNATFGEVSKIVASMWDSLGEEQKQVYKRKTEAAKKEYLKALAAYR [A17H]  -0.044 ± 0.13
15. QKPVSAYALFFRDTQTAIKGQNPNATFGEVSKIVASMWDSLGEEQKQVYKRKTEAAKKEYLKALAAYR [A16T]  -0.047 ± 0.081
16. QKPVSAYALFFRDTQAFIKGQNPNATFGEVSKIVASMWDSLGEEQKQVYKRKTEAAKKEYLKALAAYR [A17F]  -0.071 ± 0.075
17. QKPVSAYALFFRDTQALIKGQNPNATFGEVSKIVASMWDSLGEEQKQVYKRKTEAAKKEYLKALAAYR [A17L]  -0.071 ± 0.056
18. QKPVSAYALFFRDTQIAIKGQNPNATFGEVSKIVASMWDSLGEEQKQVYKRKTEAAKKEYLKALAAYR [A16I]  -0.071 ± 0.15
19. QKPVSAYALFFRDTQAEIKGQNPNATFGEVSKIVASMWDSLGEEQKQVYKRKTEAAKKEYLKALAAYR [A17E]  -0.082 ± 0.1
20. QKPVSAYALFFRDTQAYIKGQNPNATFGEVSKIVASMWDSLGEEQKQVYKRKTEAAKKEYLKALAAYR [A17Y]  -0.087 ± 0.081
21. QKPVSAYALFFRDTQHAIKGQNPNATFGEVSKIVASMWDSLGEEQKQVYKRKTEAAKKEYLKALAAYR [A16H]  -0.09 ± 0.17
22. QKPVSAYALFFRDTQADIKGQNPNATFGEVSKIVASMWDSLGEEQKQVYKRKTEAAKKEYLKALAAYR [A17D]  -0.133 ± 0.12
23. QKPVSAYALFFRDTQQAIKGQNPNATFGEVSKIVASMWDSLGEEQKQVYKRKTEAAKKEYLKALAAYR [A16Q]  -0.133 ± 0.077
24. QKPVSAYALFFRDTQSAIKGQNPNATFGEVSKIVASMWDSLGEEQKQVYKRKTEAAKKEYLKALAAYR [A16S]  -0.158 ± 0.055
25. QKPVSAYALFFRDTQFAIKGQNPNATFGEVSKIVASMWDSLGEEQKQVYKRKTEAAKKEYLKALAAYR [A16F]  -0.164 ± 0.11
26. QKPVSAYALFFRDTQAMIKGQNPNATFGEVSKIVASMWDSLGEEQKQVYKRKTEAAKKEYLKALAAYR [A17M]  -0.169 ± 0.098
27. QKPVSAYALFFRDTQLAIKGQNPNATFGEVSKIVASMWDSLGEEQKQVYKRKTEAAKKEYLKALAAYR [A16L]  -0.178 ± 0.059
28. QKPVSAYALFFRDTQANIKGQNPNATFGEVSKIVASMWDSLGEEQKQVYKRKTEAAKKEYLKALAAYR [A17N]  -0.185 ± 0.16
29. QKPVSAYALFFRDTQAGIKGQNPNATFGEVSKIVASMWDSLGEEQKQVYKRKTEAAKKEYLKALAAYR [A17G]  -0.19 ± 0.079
30. QKPVSAYALFFRDTWAAIKGQNPNATFGEVSKIVASMWDSLGEEQKQVYKRKTEAAKKEYLKALAAYR [Q15W]  -0.194 ± 0.075
31. QKPVSAYALFFRDTQGAIKGQNPNATFGEVSKIVASMWDSLGEEQKQVYKRKTEAAKKEYLKALAAYR [A16G]  -0.209 ± 0.074
32. QKPVSAYALFFRDTQAWIKGQNPNATFGEVSKIVASMWDSLGEEQKQVYKRKTEAAKKEYLKALAAYR [A17W]  -0.234 ± 0.08
33. QKPVSAYALFFRDTQACIKGQNPNATFGEVSKIVASMWDSLGEEQKQVYKRKTEAAKKEYLKALAAYR [A17C]  -0.278 ± 0.14
34. QKPVSAYALFFRDTQWAIKGQNPNATFGEVSKIVASMWDSLGEEQKQVYKRKTEAAKKEYLKALAAYR [A16W]  -0.324 ± 0.093
35. QKPVSAYALFFRDTQCAIKGQNPNATFGEVSKIVASMWDSLGEEQKQVYKRKTEAAKKEYLKALAAYR [A16C]  -0.376 ± 0.086
36. QKPVSAYALFFRDTQMAIKGQNPNATFGEVSKIVASMWDSLGEEQKQVYKRKTEAAKKEYLKALAAYR [A16M]  -0.401 ± 0.14
37. QKPVSAYALFFRDTQAPIKGQNPNATFGEVSKIVASMWDSLGEEQKQVYKRKTEAAKKEYLKALAAYR [A17P]  -0.472 ± 0.1
38. QKPVSAYALFFRDTQYAIKGQNPNATFGEVSKIVASMWDSLGEEQKQVYKRKTEAAKKEYLKALAAYR [A16Y]  -0.564 ± 0.15
39. QKPVSAYALFFRDTQAAAKGQNPNATFGEVSKIVASMWDSLGEEQKQVYKRKTEAAKKEYLKALAAYR [I18A]  -0.607 ± 0.13
40. QKPVSAYALFFRDTQAACKGQNPNATFGEVSKIVASMWDSLGEEQKQVYKRKTEAAKKEYLKALAAYR [I18C]  -0.685 ± 0.16
